Positions count from the first letter of the chain named. In names and notes the source's numbering stands. One block for each binder: values may come before it.
Key:
[1] = molecular target: T1, Recombinant Human DLL4 (R&D Systems Cat#1506-D4/CF) (human, UniProt Q9NR61 27-524); experiment: ECL (MSD) binding assay, immobilised DLL4, repeat experiment
T1 construct: Bought recombinant protein; also called delta-like protein 4; rHuman DLL4

[2] = molecular target: T1, Recombinant Human DLL4 (R&D Systems …); experiment: ECL (MSD) binding assay, DLL4 signal divided by blank, repeat experiment
[3] = molecular target: T2, rHuman HGF R/c-MET/Fc Chimera, CF (R&D Systems Cat#358-MT/CF) (human, UniProt P08581 25-932); experiment: ECL Multispot (MSD) assay, antigen spotted on plate, 10 nM Fab;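 also: purified Fab bound to antigen spots for 1 h at 20 °C, then TAG detection antibody, electrochemiluminescence compared with each well's blank, ratio of 4 or more marks a hit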
T2 construct: Bought recombinant protein; also called HGF R/Fc

[4] = molecular target: T3, rHuman IGF-1 sR (insulin-like growth factor-1 soluble receptor), CF (R&D Systems Cat#391-GR) (human, UniProt P08069 31-932); experiment: as above
T3 construct: Bought recombinant soluble receptor

[5] = molecular target: T1, Recombinant Human DLL4 (R&D Systems …); experiment: as above
[6] = molecular target: T4, rHuman ErbB2/Fc Chimera, CF (R&D Systems Cat#1129-ER) (human, UniProt P04626 23-652); experiment: as above
T4 construct: Bought recombinant protein

[7] = molecular target: T5, rHuman EGF R/Fc Chimera, CF (R&D Systems Cat#344-ER) (human, UniProt P00533 25-645); experiment: as above
T5 construct: Bought recombinant protein

[8] = molecular target: T6, rHuman Erythropoietin R/Fc Chimera, CF (R&D Systems Cat#963-ER) (human, UniProt P19235 25-250); experiment: as above
T6 construct: Bought recombinant protein; also called EPO R; EPO R/Fc
T6 sequence (looked up): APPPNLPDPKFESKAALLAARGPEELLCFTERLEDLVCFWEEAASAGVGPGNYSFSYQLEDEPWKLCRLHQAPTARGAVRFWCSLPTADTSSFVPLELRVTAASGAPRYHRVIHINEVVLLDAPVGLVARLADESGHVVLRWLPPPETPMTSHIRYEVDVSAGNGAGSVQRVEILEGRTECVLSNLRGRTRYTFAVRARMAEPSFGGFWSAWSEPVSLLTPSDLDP

[9] = molecular target: T7, rHuman CD44/Fc Chimera, CF (R&D Systems Cat#3660-CD) (human, UniProt P16070 21-220); experiment: as above
T7 construct: Bought recombinant protein

[10] = molecular target: T8, rHuman P-Cadherin/Fc Chimera, CF (R&D Systems Cat#861-PC) (human, UniProt P22223 108-654); experiment: as above
T8 construct: Bought recombinant protein

[11] = molecular target: T9, rHuman HGF R/c-MET/Fc Chimera, CF (R&D Systems Cat#358-MT/CF) (human, UniProt P08581 25-932); experiment: ECL multispot (MSD) binding assay; antigen spotted on plate, Fab in solution, Ru-labelled anti-kappa detection;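 also: purified Fab in 1% BSA TBST incubated 1 h at 20 °C with shaking, signal compared with each well's blank, signal/blank ratio of 4 or above counted as binder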
T9 construct: Bought from R&D Systems; also called HGF R/Fc; hepatocyte growth factor receptor; Fc part of the bought chimera not given

[12] = molecular target: T10, rHuman P-Cadherin/Fc Chimera, CF (R&D Systems Cat#861-PC) (human, UniProt P22223 108-654); experiment: as above
T10 construct: Bought from R&D Systems; Fc part of the bought chimera not given

[13] = molecular target: T11, rHuman EGF R/Fc Chimera, CF (R&D Systems Cat#344-ER) (human, UniProt P00533 25-645); experiment: as above
T11 construct: Bought from R&D Systems; also called epidermal growth factor receptor; Fc part of the bought chimera not given

[14] = molecular target: T12, rHuman ErbB2/Fc Chimera, CF (R&D Systems Cat#1129-ER) (human, UniProt P04626 23-652); experiment: as above
T12 construct: Bought from R&D Systems; also called human epidermal growth factor 2 receptor; Fc part of the bought chimera not given

[15] = molecular target: T13, Recombinant Human DLL4 (R&D Systems Cat#1506-D4/CF) (human, UniProt Q9NR61 27-524); experiment: as above
T13 construct: Bought from R&D Systems; also called delta-like protein 4; rHuman DLL4

[16] = molecular target: T14, rHuman IGF-1 sR, CF (R&D Systems Cat#391-GR) (human, UniProt P08069 31-932); experiment: as above
T14 construct: Bought from R&D Systems as a soluble receptor; also called insulin-like growth factor-1 soluble receptor

[17] = molecular target: T15, rHuman P-Cadherin/Fc Chimera, CF (R&D Systems Cat#861-PC) (human, UniProt P22223 108-654); experiment: ECL multispot (MSD) assay; antigen spotted on plate, Fab in solution;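 also: purified Fab incubated 1 hour at 20 °C in 1% BSA TBST on antigen-coated wells, detected with TAG antibody, ECL read on Sector Imager 2400, compared to each well's blank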
T15 construct: Bought protein; Fc part of the bought chimera not given

[18] = molecular target: T16, rHuman CD44/Fc Chimera, CF (R&D Systems Cat#3660-CD) (human, UniProt P16070 21-220); experiment: as above
T16 construct: Bought protein; Fc part of the bought chimera not given

[19] = molecular target: T17, rHuman EGF R/Fc Chimera, CF (R&D Systems Cat#344-ER) (human, UniProt P00533 25-645); experiment: as above
T17 construct: Bought protein; also called epidermal growth factor receptor; Fc part of the bought chimera not given

[20] = molecular target: T18, rHuman ErbB2/Fc Chimera, CF (R&D Systems Cat#1129-ER) (human, UniProt P04626 23-652); experiment: as above
T18 construct: Bought protein; also called human epidermal growth factor 2 receptor; Fc part of the bought chimera not given

[21] = molecular target: T19, rHuman IGF-1 sR, (IGF-1 sR), CF (R&D Systems Cat#391-GR) (human, UniProt P08069 31-932); experiment: as above
T19 construct: Bought soluble receptor; also called insulin-like growth factor-1 soluble receptor

[22] = molecular target: T20, rHuman HGF R/c-MET/Fc Chimera, CF (R&D Systems Cat#358-MT/CF) (human, UniProt P08581 25-932); experiment: as above
T20 construct: Bought protein; also called HGF R/Fc; hepatocyte growth factor receptor; Fc part of the bought chimera not given

[23] = molecular target: T21, rHuman Notch-1/Fc Chimera, CF (R&D Systems Cat#3647-TK) (human, UniProt P46531 19-526); experiment: as above
T21 construct: Bought protein; Fc part of the bought chimera not given

[24] = molecular target: T22, rHuman Erythropoietin R/Fc Chimera, CF (R&D Systems Cat#963-ER) (human, UniProt P19235 25-250); experiment: as above
T22 construct: Bought protein; also called EPO R; EPO R/Fc; Fc part of the bought chimera not given
T22 sequence (looked up): T6 sequence (looked up)

[25] = molecular target: T23, Recombinant Human DLL4 (R&D Systems Cat#1506-D4/CF) (human, UniProt Q9NR61 27-524); experiment: as above
T23 construct: Bought recombinant protein; also called delta-like protein 4; rHuman DLL4

[26] = molecular target: T24, Recombinant Human DLL4 (R&D Systems Cat#1506-D4/CF) (human, UniProt Q9NR61 27-524); experiment: SPR
T24 construct: bought recombinant protein; also called rHuman DLL4; delta-like protein 4

[27] = molecular target: T24, Recombinant Human DLL4 (R&D Systems …); experiment: ELISA titration, 3-fold dilutions from 20 nM Fab

B3: Fab VH1-46_IGHD6-6*01_IGHJ1*01 S102A/S103P/S104F (APF) & L6_IGKJ1*01 S30W (Fab, V domains shown)
VH: QVQLVQSGAEVKKPGASVKVSCKASGYTFTSYYMHWVRQAPGQGLEWMGIINPSGGSTSYAQKFQGRVTMTRDTSTSTVYMELSSLRSEDTAVYYCAREEYAPFSAEYFQHWGQGTLVTVSS
VL: EIVLTQSPATLSLSPGERATLSCRASQSVWSYLAWYQQKPGQAPRLLIYDASNRATGIPARFSGSGSGTDFTLTISSLEPEDFAVYYCQQRSNWPPWTFGQGTKVEIKR
notes: Tested as Fab made in E. coli; The heavy chain vector (Plasmid A) adds CH1 with His and Flag tags, the kappa vector (Plasmid C) adds CL kappa; also called APF / S30W
ECL signal [17]: 39 ECL signal | ECL signal [18]: 186 ECL signal | ECL signal [19]: 132 ECL signal | ECL signal [20]: 73 ECL signal | ECL signal [21]: 157 ECL signal | ECL signal [22]: 62 ECL signal | ECL signal [23]: 105 ECL signal | ECL signal [24]: 30 ECL signal | ECL signal [25]: 791 ECL signal

B5: Fab VH1-46_IGHD6-6*01_IGHJ1*01 S102A/S103P/S104F (APF) & L6_IGKJ1*01 S30L (Fab, V domains shown)
VH: B3 VH
VL: B3 VL with W30L
notes: Tested as Fab made in E. coli; The heavy chain vector (Plasmid A) adds CH1 with His and Flag tags, the kappa vector (Plasmid C) adds CL kappa; also called APF / S30L
ECL signal [17]: 260 ECL signal | ECL signal [18]: 240 ECL signal | ECL signal [19]: 288 ECL signal | ECL signal [20]: 244 ECL signal | ECL signal [21]: 193 ECL signal | ECL signal [22]: 250 ECL signal | ECL signal [23]: 296 ECL signal | ECL signal [24]: 259 ECL signal | ECL signal [25]: 1630 ECL signal

Now from value to binder:

ECL signal [1]: 109000 | Signal/Noise [2]: 238 | ECL signal [3]: 404 | ECL signal [4]: 315 | ECL signal [5]: 80700 | ECL signal [6]: 244 | ECL signal [7]: 293 | ECL signal [8]: 466 | ECL signal [9]: 414 | ECL signal [10]: 276
B1: Fab VH1-46_IGHD6-6*01_IGHJ1*01 S102A/S103P/S104F/H111F F29A & L6_IGKJ1*01 (Fab, V domains shown)
VH: B3 VH with F29A, H111F
VL: not shown
notes: Fab as for m1 (CH1 with His6/Flag tags, kappa CL); also called APFF F29A

ECL signal [11]: 252 | ECL signal [12]: 318 | ECL signal [13]: 279 | ECL signal [14]: 263 | ECL signal [15]: 197000 | ECL signal [16]: 342
B2: Fab VH1-46_IGHD6-6*01_IGHJ1*01 S102A/S103P/S104F/H111F & L6_IGKJ1*01 (Fab, V domains shown)
VH: B3 VH with H111F
VL: not shown
notes: Tested as a Fab made in E. coli; The heavy chain vector (Plasmid A) adds CH1 with His6 and Flag tags; The light chain vector (Plasmid C) adds kappa CL; also called APFF; H:APFF & L:wt

fold binding affinity against the parent Fab [26]: 430 fold | fold binding affinity against the antibody mutants with heavy chain H:APFF ALTH [27]: ~10 fold
B4: Fab VH1-46_IGHD6-6*01_IGHJ1*01 S102A/S103P/S104F/H111F I51V/N52L/S54T/G56H (H:APFF VLTH) & L6_IGKJ1*01 S28N/S30D/S31H S52L/A55S (L:NDH LS) (Fab, V domains shown)
VH: B3 VH with I51V, N52L, S54T, G56H, H111F
VL: B3 VL with S28N, W30D, S31H, S52L, A55S
notes: Fab; also called H:APFF VLTH & L:NDH LS

— US20120316071A1 (published 2012)
